According to paper PMC9482650, “Quantitative fragmentomics allow affinity mapping of interactomes” (Nature Communications, 2022):

Experiments:
Assay in all cases: holdup assay
Set-up in all cases: key: below the threshold = too weak to quantify, mostly under pKd 3.1 to 4
LIN7B, Q9HAP6 = target: T1, LIN7B, Q9HAP6
T1 sequence (Q9HAP6 88-185, limits assumed, looked up): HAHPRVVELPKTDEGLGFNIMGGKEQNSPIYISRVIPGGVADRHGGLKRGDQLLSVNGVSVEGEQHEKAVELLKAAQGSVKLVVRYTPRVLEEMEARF

GRIP1_3, Q9Y3R0 = target: T2, GRIP1_3, Q9Y3R0
T2 sequence (Q9Y3R0 247-346, limits assumed, looked up): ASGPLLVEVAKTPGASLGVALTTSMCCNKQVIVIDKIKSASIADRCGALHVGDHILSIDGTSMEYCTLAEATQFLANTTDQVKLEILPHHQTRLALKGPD

GRIP2_6, Q9C0E4 = target: GRIP2_6, Q9C0E4
LNX1_1, Q8TBB1 = target: LNX1_1, Q8TBB1
RADIL, Q96JH8 = target: T3, RADIL, Q96JH8
T3 sequence (Q96JH8 971-1071, limits assumed, looked up): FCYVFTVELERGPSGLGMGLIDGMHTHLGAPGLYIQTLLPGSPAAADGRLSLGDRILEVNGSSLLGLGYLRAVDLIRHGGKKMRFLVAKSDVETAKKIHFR

DLG1_1, Q12959 = target: DLG1_1, Q12959
APBA1_2, Q02410 = target: T4, APBA1_2, Q02410
T4 sequence (Q02410 742-832, limits assumed, looked up): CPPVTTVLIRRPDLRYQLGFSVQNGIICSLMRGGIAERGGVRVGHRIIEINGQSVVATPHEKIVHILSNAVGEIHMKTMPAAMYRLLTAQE

PDZD7_3, Q9H5P4 = target: T5, PDZD7_3, Q9H5P4
T5 sequence (Q9H5P4 857-944, limits assumed, looked up): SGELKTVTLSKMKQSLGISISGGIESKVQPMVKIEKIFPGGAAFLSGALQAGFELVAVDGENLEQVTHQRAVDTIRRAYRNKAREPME

GRIP2_7, Q9C0E4 = target: GRIP2_7, Q9C0E4
MAGI1_2, Q96QZ7 = target: MAGI1_2, Q96QZ7
CASK, O14936 = target: CASK, O14936
NHERF3_4, Q5T2W1 = target: T6, NHERF3_4, Q5T2W1
T6 sequence (Q5T2W1 373-468, limits assumed, looked up): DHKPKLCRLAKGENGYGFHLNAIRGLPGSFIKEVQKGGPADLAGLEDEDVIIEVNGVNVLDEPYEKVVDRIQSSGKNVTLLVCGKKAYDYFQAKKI

LNX1_3, Q8TBB1 = target: LNX1_3, Q8TBB1
GORASP1, Q9BQQ3 = target: GORASP1, Q9BQQ3
PDZD2_2, O15018 = target: T7, PDZD2_2, O15018
T7 sequence (O15018 329-429, limits assumed, looked up): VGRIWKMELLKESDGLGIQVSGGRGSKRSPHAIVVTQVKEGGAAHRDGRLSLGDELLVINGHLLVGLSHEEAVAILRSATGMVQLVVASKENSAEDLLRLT

Inadl_2, Q8NI35 = target: Inadl_2, Q8NI35
MAGI2_4, Q86UL8 = target: MAGI2_4, Q86UL8
MPP6, Q9NZW5 = target: T8, MPP6, Q9NZW5
T8 sequence (Q9NZW5 125-219, limits assumed, looked up): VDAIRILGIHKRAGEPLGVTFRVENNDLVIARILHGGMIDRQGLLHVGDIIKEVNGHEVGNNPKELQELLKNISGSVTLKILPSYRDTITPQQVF

DLG4_3, P78352 = target: DLG4_3, P78352
FRMPD2_2, Q68DX3 = target: FRMPD2_2, Q68DX3
GRIP1_4, Q9Y3R0 = target: T9, GRIP1_4, Q9Y3R0
T9 sequence (Q9Y3R0 467-571, limits assumed, looked up): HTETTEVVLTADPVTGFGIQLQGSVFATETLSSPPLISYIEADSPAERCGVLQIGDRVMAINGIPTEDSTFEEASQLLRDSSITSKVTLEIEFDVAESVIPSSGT

LAP2, Q96RT1 = target: LAP2, Q96RT1
MPP7, Q5T2T1 = target: T10, MPP7, Q5T2T1
T10 sequence (Q5T2T1 134-230, limits assumed, looked up): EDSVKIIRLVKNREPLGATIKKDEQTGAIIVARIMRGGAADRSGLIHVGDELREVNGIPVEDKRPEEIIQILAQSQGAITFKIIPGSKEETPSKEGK

FRMPD2_1, Q68DX3 = target: FRMPD2_1, Q68DX3
PCLO, Q9Y6V0 = target: T11, PCLO, Q9Y6V0
T11 sequence (Q9Y6V0 4491-4600, limits assumed, looked up): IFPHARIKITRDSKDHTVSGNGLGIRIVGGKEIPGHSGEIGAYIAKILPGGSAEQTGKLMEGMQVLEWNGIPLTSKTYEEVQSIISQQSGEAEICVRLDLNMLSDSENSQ

GIPC2, Q8TF65 = target: GIPC2, Q8TF65
FRMPD2_3, Q68DX3 = target: FRMPD2_3, Q68DX3
[1] = plain residues with an end cap or a label only (N-terminal biotin on a linker: ahx)
[2] = plain residues with an end cap or a label only (N-terminal biotin on a linker: ttds)
[3] = plain residues with an end cap or a label only (N-terminal biotin on a linker: gsgsgs; C-terminal amide)

Measured: pKd

Sequence of CASK, O14936 (O14936 487-570): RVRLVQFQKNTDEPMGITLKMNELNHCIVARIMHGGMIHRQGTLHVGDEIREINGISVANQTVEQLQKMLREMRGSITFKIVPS
Sequence of LAP2, Q96RT1 (Q96RT1 other isoform, or with tags, fused parts or gaps): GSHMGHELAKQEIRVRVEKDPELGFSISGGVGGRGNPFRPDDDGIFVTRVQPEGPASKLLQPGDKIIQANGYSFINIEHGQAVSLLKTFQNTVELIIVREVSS
Sequence of FRMPD2_1, Q68DX3 (Q68DX3 770-861): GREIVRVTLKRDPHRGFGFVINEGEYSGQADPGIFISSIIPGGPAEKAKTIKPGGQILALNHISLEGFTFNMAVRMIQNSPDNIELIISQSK
Sequence of LNX1_1, Q8TBB1 (Q8TBB1 261-371): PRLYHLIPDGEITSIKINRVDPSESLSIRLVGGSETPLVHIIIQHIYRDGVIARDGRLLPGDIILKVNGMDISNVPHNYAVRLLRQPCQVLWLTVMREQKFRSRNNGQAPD
Sequence of LNX1_3, Q8TBB1 (Q8TBB1 500-596): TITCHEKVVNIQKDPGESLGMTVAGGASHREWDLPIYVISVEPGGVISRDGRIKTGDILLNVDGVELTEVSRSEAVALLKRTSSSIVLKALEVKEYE
Sequence of GRIP2_7, Q9C0E4 (Q9C0E4 934-1023): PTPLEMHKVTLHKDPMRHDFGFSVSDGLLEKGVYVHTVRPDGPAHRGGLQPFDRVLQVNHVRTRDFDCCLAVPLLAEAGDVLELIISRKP
Sequence of GRIP2_6, Q9C0E4 (Q9C0E4 648-740): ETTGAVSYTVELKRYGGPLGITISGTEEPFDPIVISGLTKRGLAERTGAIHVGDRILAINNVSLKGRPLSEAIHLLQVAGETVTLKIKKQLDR
Sequence of GIPC2, Q8TF65 (Q8TF65 112-203): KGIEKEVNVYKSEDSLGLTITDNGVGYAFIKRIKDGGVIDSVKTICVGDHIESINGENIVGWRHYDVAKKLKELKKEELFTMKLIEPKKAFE
Sequence of MAGI1_2, Q96QZ7 (Q96QZ7 456-580): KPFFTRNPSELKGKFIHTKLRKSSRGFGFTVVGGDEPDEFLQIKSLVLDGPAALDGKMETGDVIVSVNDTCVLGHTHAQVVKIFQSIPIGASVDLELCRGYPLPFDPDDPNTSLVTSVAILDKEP
Sequence of FRMPD2_3, Q68DX3 (Q68DX3 1073-1166): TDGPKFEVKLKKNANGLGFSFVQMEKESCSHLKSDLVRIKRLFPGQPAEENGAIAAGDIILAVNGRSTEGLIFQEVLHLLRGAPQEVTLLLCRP
Sequence of Inadl_2, Q8NI35 (Q8NI35 238-335): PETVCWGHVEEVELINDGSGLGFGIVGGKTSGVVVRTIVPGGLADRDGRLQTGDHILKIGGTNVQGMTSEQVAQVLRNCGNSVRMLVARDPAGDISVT
Sequence of DLG4_3, P78352 (P78352 306-403): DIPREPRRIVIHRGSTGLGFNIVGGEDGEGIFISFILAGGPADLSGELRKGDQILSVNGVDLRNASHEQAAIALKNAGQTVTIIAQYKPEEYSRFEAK
Sequence of FRMPD2_2, Q68DX3 (Q68DX3 944-1038): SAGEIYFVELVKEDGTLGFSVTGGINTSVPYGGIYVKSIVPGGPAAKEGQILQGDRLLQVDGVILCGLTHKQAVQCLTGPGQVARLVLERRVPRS
Sequence of MAGI2_4, Q86UL8 (Q86UL8 772-865): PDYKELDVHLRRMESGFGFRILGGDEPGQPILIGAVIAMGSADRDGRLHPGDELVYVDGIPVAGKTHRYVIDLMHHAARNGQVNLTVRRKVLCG
Sequence of GORASP1, Q9BQQ3 (Q9BQQ3 1-208): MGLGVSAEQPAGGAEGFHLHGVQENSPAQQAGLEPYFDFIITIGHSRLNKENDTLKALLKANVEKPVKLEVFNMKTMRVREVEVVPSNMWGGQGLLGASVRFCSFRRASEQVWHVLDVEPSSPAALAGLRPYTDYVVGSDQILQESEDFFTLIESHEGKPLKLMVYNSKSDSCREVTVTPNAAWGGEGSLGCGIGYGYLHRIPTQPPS

RRRKRKRTYL [HPV49-L2, P36762]
4.04: GRIP1_4, Q9Y3R0; [1]
3.68: GRIP2_7, Q9C0E4; [1]
3.98: APBA1_2, Q02410; [1]
4.26: DLG4_3, P78352; [1]
5.71: MAGI1_2, Q96QZ7; [1]
3.8: PDZD2_2, O15018; [1]
4.31: PDZD7_3, Q9H5P4; [1]
4.65: GORASP1, Q9BQQ3; [1]
3.63: LNX1_1, Q8TBB1; [1]
below the threshold: LIN7B, Q9HAP6; [1] | GRIP1_3, Q9Y3R0; [1] | GRIP2_6, Q9C0E4; [1] | RADIL, Q96JH8; [1] | CASK, O14936; [1] | LNX1_3, Q8TBB1; [1] | Inadl_2, Q8NI35; [1] | MAGI2_4, Q86UL8; [1] | MPP6, Q9NZW5; [1] | FRMPD2_2, Q68DX3; [1] | LAP2, Q96RT1; [1] | MPP7, Q5T2T1; [1] | PCLO, Q9Y6V0; [1] | GIPC2, Q8TF65; [1] | FRMPD2_3, Q68DX3; [1]
3.49: DLG1_1, Q12959; [1]
3.78: FRMPD2_1, Q68DX3; [1]
4: NHERF3_4, Q5T2W1; [1]

RAVEEEESRF [PSCDBP, O60759]
below the threshold: LIN7B, Q9HAP6; [1] | GRIP1_3, Q9Y3R0; [1] | GRIP2_6, Q9C0E4; [1] | LNX1_1, Q8TBB1; [1] | RADIL, Q96JH8; [1] | DLG1_1, Q12959; [1] | APBA1_2, Q02410; [1] | PDZD7_3, Q9H5P4; [1] | GRIP2_7, Q9C0E4; [1] | MAGI1_2, Q96QZ7; [1] | CASK, O14936; [1] | NHERF3_4, Q5T2W1; [1] | LNX1_3, Q8TBB1; [1] | GORASP1, Q9BQQ3; [1] | PDZD2_2, O15018; [1] | Inadl_2, Q8NI35; [1] | MAGI2_4, Q86UL8; [1] | MPP6, Q9NZW5; [1] | DLG4_3, P78352; [1] | FRMPD2_2, Q68DX3; [1] | GRIP1_4, Q9Y3R0; [1] | LAP2, Q96RT1; [1] | MPP7, Q5T2T1; [1] | FRMPD2_1, Q68DX3; [1] | PCLO, Q9Y6V0; [1] | GIPC2, Q8TF65; [1] | FRMPD2_3, Q68DX3; [1]

RPLPRKVSQL [DOCK4, Q8N1I0]
below the threshold: LIN7B, Q9HAP6; [2] | GRIP1_3, Q9Y3R0; [2] | GRIP2_6, Q9C0E4; [2] | LNX1_1, Q8TBB1; [2] | RADIL, Q96JH8; [2] | DLG1_1, Q12959; [2] | GRIP2_7, Q9C0E4; [2] | CASK, O14936; [2] | NHERF3_4, Q5T2W1; [2] | LNX1_3, Q8TBB1; [2] | PDZD2_2, O15018; [2] | Inadl_2, Q8NI35; [2] | MAGI2_4, Q86UL8; [2] | MPP6, Q9NZW5; [2] | FRMPD2_2, Q68DX3; [2] | GRIP1_4, Q9Y3R0; [2] | MPP7, Q5T2T1; [2] | FRMPD2_1, Q68DX3; [2] | PCLO, Q9Y6V0; [2] | GIPC2, Q8TF65; [2] | FRMPD2_3, Q68DX3; [2]
3.55: GORASP1, Q9BQQ3; [2]
4.5: PDZD7_3, Q9H5P4; [2]
3.73: LAP2, Q96RT1; [2]
3.69: DLG4_3, P78352; [2]
4.51: MAGI1_2, Q96QZ7; [2]
3.97: APBA1_2, Q02410; [2]

YGIVQETTFDLGGDIH [MLLT4_int, P55196]
3.58: LIN7B, Q9HAP6; [3]
4.9: PDZD7_3, Q9H5P4; [3]
below the threshold: GRIP1_3, Q9Y3R0; [3] | GRIP2_6, Q9C0E4; [3] | LNX1_1, Q8TBB1; [3] | RADIL, Q96JH8; [3] | DLG1_1, Q12959; [3] | APBA1_2, Q02410; [3] | GRIP2_7, Q9C0E4; [3] | MAGI1_2, Q96QZ7; [3] | CASK, O14936; [3] | NHERF3_4, Q5T2W1; [3] | LNX1_3, Q8TBB1; [3] | GORASP1, Q9BQQ3; [3] | PDZD2_2, O15018; [3] | Inadl_2, Q8NI35; [3] | MAGI2_4, Q86UL8; [3] | MPP6, Q9NZW5; [3] | DLG4_3, P78352; [3] | FRMPD2_2, Q68DX3; [3] | GRIP1_4, Q9Y3R0; [3] | LAP2, Q96RT1; [3] | MPP7, Q5T2T1; [3] | FRMPD2_1, Q68DX3; [3] | PCLO, Q9Y6V0; [3] | GIPC2, Q8TF65; [3] | FRMPD2_3, Q68DX3; [3]

FHPLGADSQV [SLC2A1, P11166]
3.48: LAP2, Q96RT1; [2]
4.22: PDZD2_2, O15018; [2]
below the threshold: LIN7B, Q9HAP6; [2] | GRIP1_3, Q9Y3R0; [2] | GRIP2_6, Q9C0E4; [2] | LNX1_1, Q8TBB1; [2] | RADIL, Q96JH8; [2] | DLG1_1, Q12959; [2] | APBA1_2, Q02410; [2] | PDZD7_3, Q9H5P4; [2] | GRIP2_7, Q9C0E4; [2] | MAGI1_2, Q96QZ7; [2] | CASK, O14936; [2] | NHERF3_4, Q5T2W1; [2] | LNX1_3, Q8TBB1; [2] | GORASP1, Q9BQQ3; [2] | Inadl_2, Q8NI35; [2] | MAGI2_4, Q86UL8; [2] | MPP6, Q9NZW5; [2] | DLG4_3, P78352; [2] | FRMPD2_2, Q68DX3; [2] | GRIP1_4, Q9Y3R0; [2] | MPP7, Q5T2T1; [2] | FRMPD2_1, Q68DX3; [2] | PCLO, Q9Y6V0; [2] | FRMPD2_3, Q68DX3; [2]
3.5: GIPC2, Q8TF65; [2]
